Numbering of substitutions follows the chain as printed. In names and notes the source's numbering stands.
T1: PFPQPQQPF peptide
T1 chain: PFPQPQQPF

T2: PFPQPQLPY peptide
T2 chain: PFPQPQLPY

B1: Kuma011-I463Q (protein)
chain: AAPTAYTPLDVAQAYQFPEGLDGQGQCIAIIELGGGYDEASLAQYFASLGVPAPQVVSVSVDGASNQPTGDPKGPDGEVELDIEVAGALAPGAKFAVYFAPDTTAGFLDAITTAIHDPTLKPSVVSISWSGPEDSWTSAAIAAMNRAFLDAAALGVTVLAAAGDSGSTGGEQDGLYHVHFPAASPYVLACGGTRLVASGGRIAQETVWNDGPDGGATGGGVSRIFPLPAWQEHANVPPSANPGASSGRGVPDLAGNADPATGYEVVIDGEATVQGGTSAVAPLFAALVARINQKLGKAVGYLNPTLYQLPADVFHDITEGNNDIANRAQIYQAGPGWDPCTGLGSPIGVRLLQALLPSASQPQ
B2: Kuma011-H368Q (protein)
chain: B1 chain with H179Q, Q274I
B3: Kuma011-A449E (protein)
chain: B1 chain with A260E, Q274I
B4: Kuma011-I463R (protein)
chain: B1 chain with Q274R
B5: Kuma011-V268T (protein)
chain: B1 chain with V79T, Q274I
B6: Kuma011-I463T (protein)
chain: B1 chain with Q274T
B7: Kuma011-D402S (protein)
chain: B1 chain with D213S, Q274I
B8: Kuma011-S354Y (protein)
chain: B1 chain with S165Y, Q274I
B9: Kuma010/011 E221D (protein)
chain: B1 chain with E32D, Q274I
B10: Kuma010/011 E221Q (protein)
chain: B1 chain with E32Q, Q274I
B11: Kuma011-E269L (protein)
chain: B1 chain with E80L, Q274I
B12: Kuma011-D399Q (protein)
chain: B1 chain with D210Q, Q274I
B13: Kuma011-I463L (protein)
chain: B1 chain with Q274L
B14: Kuma011-T461R (protein)
chain: B1 chain with T272R, Q274I
B15: Kuma011-V268A (protein)
chain: B1 chain with V79A, Q274I
B16: Kuma010/011 E221N (protein)
chain: B1 chain with E32N, Q274I
B17: Kuma010/011 E221H (protein)
chain: B1 chain with E32H, Q274I
B18: Kuma011-H368F (protein)
chain: B1 chain with H179F, Q274I
B19: Kuma011-S354A (protein)
chain: B1 chain with S165A, Q274I
B20: Kuma011-L270T (protein)
chain: B1 chain with L81T, Q274I
B21: Kuma011-G358N (protein)
chain: B1 chain with G169N, Q274I
B22: Kuma011-K262E (protein)
chain: B1 chain with K73E, Q274I
B23: Kuma011-S354E (protein)
chain: B1 chain with S165E, Q274I
B24: Kuma011-G358T (protein)
chain: B1 chain with G169T, Q274I
B25: Kuma011-G358Q (protein)
chain: B1 chain with G169Q, Q274I
B26: Kuma011-S354R (protein)
chain: B1 chain with S165R, Q274I
B27: Kuma011-L270V (protein)
chain: B1 chain with L81V, Q274I
B28: Kuma011-I463A (protein)
chain: B1 chain with Q274A
B29: Kuma010/011 A449N (protein)
chain: B1 chain with A260N, Q274I
B30: Kuma011-E269T (protein)
chain: B1 chain with E80T, Q274I
B31: Kuma011-N424K (protein)
chain: B1 chain with N235K, Q274I
B32: Kuma010/011 S319A (protein)
chain: B1 chain with S130A, Q274I
B33: Kuma011-I463V (protein)
chain: B1 chain with Q274V
B34: Kuma011-S354Q (protein)
chain: B1 chain with S165Q, Q274I
B35: Kuma011-V268S (protein)
chain: B1 chain with V79S, Q274I
B36: Kuma011-I463M (protein)
chain: B1 chain with Q274M
B37: Kuma011-T406S (protein)
chain: B1 chain with T217S, Q274I
B38: Kuma011-D402Q (protein)
chain: B1 chain with D213Q, Q274I
B39: Kuma011-G358S (protein)
chain: B1 chain with G169S, Q274I
B40: Kuma011-L270A (protein)
chain: B1 chain with L81A, Q274I

Assays:
PFPQPQQPF peptide = molecular target: T1, PFPQPQQPF peptide
PFPQPQLPY peptide = molecular target: T2, PFPQPQLPY peptide

Protein	% Improvement on PFPQPQQPF (SEQ ID NO: 68) (PFPQPQQPF peptide)	% Improvement on PFPQPQLPY (SEQ ID NO: 67) (PFPQPQLPY peptide)
B1	69%	129%
B2	195%	199%
B3	208%	149%
B4	110%	29%
B5	105%	127%
B6	239%	130%
B7	108%	94%
B8	105%	46%
B9		105%
B10		105%
B11	84%	113%
B12	208%	149%
B13	22%	124%
B14	86%	120%
B15	89%	107%
B16		105%
B17		105%
B18	104%	334%
B19	140%	152%
B20	29%	307%

Protein	% Improvement on PFPQPQQPF (SEQ ID NO: 68) (PFPQPQQPF peptide)	% Improvement on PFPQPQLPY (SEQ ID NO: 67) (PFPQPQLPY peptide)
B21	99%	120%
B22	110%	109%
B23	120%	124%
B24	128%	283%
B25	149%	147%
B26	82%	109%
B27	61%	474%
B28	234%	51%
B29	118%	119%
B30	191%	263%
B31		285%
B32	184%	154%
B33	141%	256%
B34	141%	145%
B35	83%	104%
B36	53%	123%
B37	101%	84%
B38	111%	164%
B39	224%	331%
B40	92%	203%

From US20180142226
